Laboratory results from the supplement of paper PMC9732359.
± gives the uncertainty stated by the source.

Assay: protein stability index of a GFP-peptide fusion (yeast GPS) (PSI 1-4); higher = more stable; sorted into four equal gates, so the index is relative within each strain
In short: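 Tiled 17-residue yeast protein peptides were fused downstream of GFP in a plasmid that also expresses Cherry, and the pooled library was carried in yeast. Mid-log cultures in leucine-free medium were sorted into four equal gates by GFP/Cherry fluorescence ratio, and plasmids from each gate were PCR-amplified and Illumina-sequenced, with reads assigned to strains by barcodes. The protein stability index for each peptide was each gate's read frequency times its gate number, summed.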

Sequence | protein stability index (doa10∆) | protein stability index (pdr5∆) | protein stability index (san1∆) | protein stability index (ubr1∆)
KIAKRRQVYKPVLDNPF [POP3] | 1.92 ± 0.077 | 2.33 ± 0.082 | 1.99 ± 0.11 | 2.08 ± 0.066
NENSNCLLSIPKSTKGK [YML103C/NUP188] | 2.04 ± 0.05 | 1.99 ± 0.044 | 2.61 ± 0.05 | 2.35 ± 0.043
KYNAFIASEVLIKQVPR [RPL1A] | 1.73 ± 0.085 | 1.57 ± 0.06 | 1.39 ± 0.15 | 1.66 ± 0.045
DRTMLAPMDFAIVVGWR [FAS1] | 2.49 ± 0.075 | 2.43 ± 0.062 | 2.68 ± 0.062 | 1.77 ± 0.041
LSIELEGGKNQAELLQL [YJL039C/NUP192] | 2.85 ± 0.14 | 3.11 ± 0.099 | 3.31 ± 0.21 | 2.67 ± 0.11
MDFFNLNNNNNNNNTTT [SWI1] | 2.97 ± 0.072 | 3.33 ± 0.081 | 2.53 ± 0.13 | 2.35 ± 0.067
QTARKSTGGKAPRKQLA [HHT1] | 3.18 ± 0.11 | 3.29 ± 0.098 | 3.05 ± 0.072 | 3.37 ± 0.086
FLNDVIPTTKNLRLLVE [DLS1] | 3.28 ± 0.091 | 3.16 ± 0.11 | 2.88 ± 0.081 | 3.47 ± 0.087
KEIYTTLGNQMLSAHNI [YJR042W/NUP85] | 2.85 ± 0.099 | 2.82 ± 0.077 | 3.12 ± 0.079 | 3.08 ± 0.063
LKKDIESLRGILHVRAQ [SRP72] | 1.9 ± 0.1 | 2.39 ± 0.12 | 2.11 ± 0.22 | 2.07 ± 0.062
SDEEEVTEMSNNANVLG [BRR2] | 3.03 ± 0.065 | 3.1 ± 0.049 | 2.83 ± 0.063 | 3.17 ± 0.046
YEKNFEATLESKLKEEE [ESC2] | 3.09 ± 0.12 | 3.13 ± 0.17 | 3.03 ± 0.071 | 3.18 ± 0.13
SCIAVMAGLMHFKKPDI [RRP45] | 2.02 ± 0.062 | 1.66 ± 0.053 | 1.77 ± 0.08 | 1.69 ± 0.035
EDTNTKPLFDFGKTGDQ [YOR098C/NUP1] | 1.86 ± 0.25 | – | – | –
KLTRELEKKFQDRHVIF [RPS7A] | 3.08 ± 0.14 | 3.5 ± 0.18 | 3.09 ± 0.086 | 3.18 ± 0.1
VPNSIGNIFSNIGTPSF [SNF5] | 2.8 ± 0.11 | 2.6 ± 0.1 | 1.33 ± 0.15 | 2.79 ± 0.061
STNEDQNNSKHTEDTVN [SRB5] | 2.39 ± 0.1 | 2.1 ± 0.077 | 1.65 ± 0.1 | 2.31 ± 0.051
YPLLIRMSYGSHDKKTK [SRP14] | 2.61 ± 0.06 | 2.49 ± 0.069 | 2.57 ± 0.043 | 2.6 ± 0.053
VEYVDPTVNRVPNYEVS [RPN7] | 3.37 ± 0.26 | 3.2 ± 0.16 | 2.92 ± 0.25 | 3.8 ± 0.15
PSQGMVVEISNGNTSSK [FAS1] | 3.08 ± 0.057 | 3.27 ± 0.051 | 3.2 ± 0.048 | 3.29 ± 0.056
SRMTVGKMIELISGKAG [RET1] | 3.14 ± 0.17 | 2.98 ± 0.15 | 3.05 ± 0.094 | 3.12 ± 0.13
PYDSNNSNTNLNSLSPQ [SWI1] | 2.96 ± 0.049 | 2.87 ± 0.051 | 2.76 ± 0.054 | 2.79 ± 0.04
LASNFDNFDYFNQRDGE [MED1] | 3.3 ± 0.08 | 3.17 ± 0.09 | 3.2 ± 0.084 | 3.1 ± 0.11
TGNIKHEDLVNSIESKN [COR1] | 3.13 ± 0.093 | 2.99 ± 0.11 | 3.2 ± 0.075 | 2.96 ± 0.087
EIFIRCNNVLYIRELPN [SMX3] | – | 1.75 ± 0.18 | 1.53 ± 0.12 | 1.48 ± 0.12
LAELINMTTIADRNDDD [SRB6] | 2.73 ± 0.066 | 2.64 ± 0.078 | 2.75 ± 0.062 | 2.78 ± 0.076

Sequence | protein stability index (doa10∆) | protein stability index (pdr5∆) | protein stability index (san1∆) | protein stability index (ubr1∆)
LESEIASSSAKLIEKKS [SMC2] | 2.69 ± 0.072 | 3.03 ± 0.058 | 3.08 ± 0.04 | 3 ± 0.055
PSLEKSSFTFGSTTIEK [YLR335W/NUP2] | 2.17 ± 0.058 | 2.65 ± 0.086 | 1.66 ± 0.15 | 2.01 ± 0.056
EENSSSNGNNLPLNKPR [RGR1] | 3.24 ± 0.044 | 3.29 ± 0.044 | 3.2 ± 0.041 | 3.26 ± 0.045
ASINTSATVKTSDLLGS [ECM29] | 3.24 ± 0.24 | 2.96 ± 0.21 | – | 3.25 ± 0.21
FDKVIYHLHPTFANPNR [TAF14] | 1.49 ± 0.091 | 1.44 ± 0.064 | 1.43 ± 0.22 | 1.19 ± 0.057
MVSHKTARGKAALERLK [RPL16B] | 2.92 ± 0.21 | 2.74 ± 0.15 | 2.47 ± 0.21 | 2.21 ± 0.16
ATANATANATANVNASA [DSN1] | 2.78 ± 0.043 | 3 ± 0.037 | 3.17 ± 0.032 | 2.918 ± 0.025
RHLEKEGIIKPISKHSK [RPS25A] | 3.04 ± 0.084 | 3.28 ± 0.093 | 2.96 ± 0.084 | 3.01 ± 0.076
EELLQLFLNNFVSRIPI [IRR1] | 3.12 ± 0.058 | 2.74 ± 0.055 | 2.75 ± 0.054 | 2.7 ± 0.041
LSVMCGCGTVKRFNIGA [RPR2] | 3.16 ± 0.21 | 2.97 ± 0.12 | 3.14 ± 0.14 | 2.07 ± 0.18
ARYNWICNPVHKHREAR [RPL15B] | 2.94 ± 0.083 | 2.68 ± 0.088 | 2.36 ± 0.11 | 3.04 ± 0.095
TKAIQGCSKICDLSSKF [YCS4] | 3.15 ± 0.083 | 3.2 ± 0.069 | 3.37 ± 0.037 | 3.06 ± 0.098
SMILIQQTEKLNPQVAD [RPN2] | 1.53 ± 0.041 | 1.67 ± 0.044 | 1.65 ± 0.073 | 1.63 ± 0.03
ETPEGQACGLVKNLSLM [RPB2] | 1.67 ± 0.13 | 2.25 ± 0.12 | 3.01 ± 0.11 | 3.03 ± 0.13
SSGQDKKKKKGSNQKPK [RPT2] | 3.08 ± 0.21 | 2.92 ± 0.28 | – | 3.1 ± 0.15
QAVETVGQAGRPKKITG [RPN1] | 1.99 ± 0.06 | 2.74 ± 0.095 | 2.31 ± 0.12 | 2.45 ± 0.056
LSFINPKTGKVERSEAI [SEC65] | 3.6 ± 0.17 | 3.47 ± 0.081 | 3.33 ± 0.14 | 3.22 ± 0.073
LIEKEIQPKITELKKKL [SMC1] | 3.02 ± 0.1 | 2.91 ± 0.089 | 2.9 ± 0.11 | 3.02 ± 0.077
GNDTISKFYNMKQPYVF [SSN2] | 3.12 ± 0.12 | 3.05 ± 0.11 | 3.2 ± 0.057 | 3.2 ± 0.065
VFVNTGLQNVRKVRTKK [SWP82] | 2.51 ± 0.16 | 2.35 ± 0.096 | 2.78 ± 0.17 | 3.11 ± 0.15
NTTQDNGGDKELEMIGG [YCS4] | 3.26 ± 0.17 | 3.06 ± 0.17 | 2.46 ± 0.2 | 3.26 ± 0.23
EPIKLEPVKEYTFKTSM [YMR129W/POM152] | 2.22 ± 0.098 | 2.29 ± 0.08 | 1.99 ± 0.17 | –
LSTSEDVSIEELLREWL [IRR1] | 3.25 ± 0.16 | 2.31 ± 0.21 | – | 1.53 ± 0.15
RAKSCGVDAMSVDDLKK [RPL1A] | 2.54 ± 0.078 | 2.41 ± 0.078 | 2.69 ± 0.075 | 2.48 ± 0.05
RAPELLLGARHYTPAVD [SSN3] | 1.67 ± 0.12 | 1.08 ± 0.13 | 1.9 ± 0.3 | 1.56 ± 0.11
QVQGQQQAQSFVGKKNT [SSN3] | 2.55 ± 0.053 | 2.69 ± 0.048 | 2.57 ± 0.052 | 2.57 ± 0.041

Sequence | protein stability index (doa10∆) | protein stability index (pdr5∆) | protein stability index (san1∆) | protein stability index (ubr1∆)
EMSNKVLKVDKRFMNTS [BRR2] | 2.9 ± 0.04 | 2.96 ± 0.05 | 2.99 ± 0.038 | 2.93 ± 0.039
LEQVEFEKNTILQQRSK [MED4] | 2.94 ± 0.22 | 3.44 ± 0.13 | 2.77 ± 0.11 | 3.27 ± 0.1
KFNNTQRESQIGAAELN [SNF12] | 3.01 ± 0.097 | 3.03 ± 0.14 | 2.87 ± 0.057 | 3.38 ± 0.09
AFEELEGSWDRGIPRIS [PRP8] | 2.88 ± 0.18 | 3.36 ± 0.19 | 3.36 ± 0.22 | 3.3 ± 0.24
NFEKILLTCYELEKKYH [SRB8] | 1.98 ± 0.1 | 2.34 ± 0.1 | – | 3.71 ± 0.21
IHSKSMSVERGIRWELI [RPT1] | 3.06 ± 0.068 | 3 ± 0.073 | 2.88 ± 0.071 | 3.04 ± 0.063
LSEYDAIQKKDNKDKEG [YOR098C/NUP1] | 3.35 ± 0.13 | 3.33 ± 0.097 | 3.38 ± 0.11 | 3.38 ± 0.067
EESINEFKSIEIEMKNK [SMC4] | 3.32 ± 0.21 | 3.56 ± 0.17 | 3.31 ± 0.25 | 2.86 ± 0.097
LMAQIFFGPTYYQRLRH [RPB2] | 2.02 ± 0.035 | 1.81 ± 0.032 | 2.08 ± 0.048 | 2.04 ± 0.031
LGFEVKDQALIGTINSI [SIR2] | 2.12 ± 0.051 | 2.48 ± 0.062 | 2.27 ± 0.054 | 2.35 ± 0.073
HTLDIINVLTDQNPIQV [RPS5] | 1.88 ± 0.066 | 2.33 ± 0.077 | 2.12 ± 0.096 | 1.86 ± 0.055
NTTTYKSRPDRPKPVSP [SNF5] | 3.09 ± 0.045 | 3.12 ± 0.05 | 3 ± 0.047 | 2.97 ± 0.042
FTMMTSEPLTLKVLSEH [PCI8] | 1.73 ± 0.056 | 1.96 ± 0.049 | 1.94 ± 0.095 | 1.54 ± 0.045
AQFLRSVVHPGEMVGVL [RPO21] | 2.23 ± 0.081 | 1.93 ± 0.08 | 2.3 ± 0.1 | 1.49 ± 0.054
QHQEEPLLSLDVTPISM [RPN4] | 2.77 ± 0.2 | 2.97 ± 0.16 | 3.07 ± 0.086 | 2.65 ± 0.23
TQEFSKNYTTETDNEMN [SIR3] | 3.31 ± 0.12 | 3.49 ± 0.064 | 3.64 ± 0.075 | 3.29 ± 0.055
ELLREWLETYSENRDKF [IRR1] | 3.34 ± 0.066 | 3.43 ± 0.098 | 3.61 ± 0.078 | 3.51 ± 0.056
DNIYRNLQKIDKDSEEL [MED4] | 2.85 ± 0.078 | 3.16 ± 0.058 | 2.85 ± 0.049 | 3.01 ± 0.054
SRPDILSKIKFPESIWK [YCG1] | 2.77 ± 0.049 | 2.04 ± 0.037 | 1.92 ± 0.058 | 2.06 ± 0.029
TRTIKQNNFHVLIDLLN [RGR1] | 1.75 ± 0.079 | 1.62 ± 0.13 | 1.87 ± 0.15 | 1.86 ± 0.12
PLVYRHELITNIGETAG [RPB9] | 2.78 ± 0.046 | 2.88 ± 0.035 | 3.04 ± 0.042 | 3.02 ± 0.036
LSFGTATSDNKTTNTTP [YJL041W/NSP1] | 2.21 ± 0.088 | 3.05 ± 0.083 | 2.24 ± 0.1 | 2.15 ± 0.094
ASTINGASIIQVIFEIF [YML103C/NUP188] | 1.43 ± 0.059 | 1.9 ± 0.054 | 1.95 ± 0.087 | 1.94 ± 0.046
KNFDMLNSMEKDRISHE [PCI8] | 2.33 ± 0.069 | 2.31 ± 0.076 | 2.35 ± 0.08 | 2.4 ± 0.043
LWELALAFIPNILALNL [YML031W/NDC1] | 2.01 ± 0.069 | 1.86 ± 0.048 | 1.85 ± 0.083 | 1.34 ± 0.061
DCQFWETWLGSQCRLHE [PRE2] | 2.22 ± 0.096 | 2.1 ± 0.14 | 2.59 ± 0.11 | 2.6 ± 0.09
